One test has as its target Grb2-Sos1 association (Rattus norvegicus, UniProt P62994). Briefly: Blockade of Grb2-Sos1 association in PC12 cell lysates. The test is classed as biochemical, human. The settings on record: 1 μM peptide, PC12 cell lysate.
Test [1] addresses Sos1 WT peptide 1 PEP (Homo sapiens) (UniProt Q07889). The following applies: cited from earlier work.
The target of the next test is Grb2 SH3 N-domain. Briefly: other fluorescence titration.

Where a SMILES comes first, the peptide text is derived from it.

Grb2 N-terminal SH3, sequence (P62993 1-58): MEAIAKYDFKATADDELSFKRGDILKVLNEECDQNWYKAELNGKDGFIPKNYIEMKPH
Grb2-Sos1 association, sequence (P62994 whole entry): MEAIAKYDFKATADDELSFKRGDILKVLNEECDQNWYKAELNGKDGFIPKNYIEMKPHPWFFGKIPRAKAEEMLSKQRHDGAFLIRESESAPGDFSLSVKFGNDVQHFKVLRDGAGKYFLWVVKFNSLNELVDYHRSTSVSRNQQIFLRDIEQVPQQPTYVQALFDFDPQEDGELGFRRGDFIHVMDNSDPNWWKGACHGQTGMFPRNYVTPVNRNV

Consider `CC(=O)N1CCC[C@H]1C(=O)N[C@@H](CCCNC(=N)N)C(=O)N[C@H](C(=O)N1CCC[C@H]1C(=O)N1CCC[C@H]1C(=O)N1CCC[C@H]1C(=O)N1CCC[C@H]1C(=O)N[C@H](C(=O)N[C@@H](CCCNC(=N)N)C(=O)N[C@@H](CCCNC(=N)N)C(N)=O)C(C)C)C(C)C` [Peptide 13, Ac-P-R-V-P-P-P-P-V-R-R-NH2] (Ac-PRVPPPPVRR-NH2), for which the “inhibition of Grb2-Sos1 association” value against Grb2-Sos1 association was “little inhibition”.
For orientation: Kd means the constant that tells how readily two partners part at equilibrium. “Grb2 N-terminal SH3 (from UniProt P62993)”: the Kd in test [1] is 39 µM.
Consider Ac-PRVPPPPVRR-NH2 [scrambled peptide Ac-P-R-V-P-P-P-P-V-R-R-NH2 (13)], for which, in the test with Grb2 SH3 N-domain, the Kd came to 173 µM.

Values taken from publication PMC3402909 (Biopolymers, 2011).
